In publication PMC10368004 one finds percentage of unoccupied hollow sites (vacancies, sites without an H-trimer) and stoichiometry N data, which are given here for one molecule.

Common to all, as to test: FM-AFM imaging
Details in all cases: remark: other sources report otherwise

For assay [1], the target named is T1, annexin A5, P08758.
T1 chain: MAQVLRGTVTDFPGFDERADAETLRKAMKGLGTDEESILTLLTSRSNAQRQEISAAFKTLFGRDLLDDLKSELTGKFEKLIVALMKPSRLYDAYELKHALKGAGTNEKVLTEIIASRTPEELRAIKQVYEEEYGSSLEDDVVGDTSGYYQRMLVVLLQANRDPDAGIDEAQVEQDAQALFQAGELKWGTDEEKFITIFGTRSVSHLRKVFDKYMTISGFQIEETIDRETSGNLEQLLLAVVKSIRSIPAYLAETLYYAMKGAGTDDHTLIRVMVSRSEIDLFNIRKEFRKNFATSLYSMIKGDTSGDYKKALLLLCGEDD

Assay [2] has as its target T1, annexin A5, P08758.
In assay [3] the target is T1, annexin A5, P08758.

B1: annexin A5, P08758 1-320 (natural protein)
chain: MAQVLRGTVTDFPGFDERADAETLRKAMKGLGTDEESILTLLTSRSNAQRQEISAAFKTLFGRDLLDDLKSELTGKFEKLIVALMKPSRLYDAYELKHALKGAGTNEKVLTEIIASRTPEELRAIKQVYEEEYGSSLEDDVVGDTSGYYQRMLVVLLQANRDPDAGIDEAQVEQDAQALFQAGELKWGTDEEKFITIFGTRSVSHLRKVFDKYMTISGFQIEETIDRETSGNLEQLLLAVVKSIRSIPAYLAETLYYAMKGAGTDDHTLIRVMVSRSEIDLFNIRKEFRKNFATSLYSMIKGDTSGDYKKALLLLCGEDD
Regarding B1, the percentage of unoccupied hollow sites (vacancies, sites without an H-trimer) with annexin A5, P08758 [1] worked out at 56.1%; with annexin A5, P08758 [2] it was 65.9%; with annexin A5, P08758 [3] it was 73.6%. Further, in the assay with annexin A5, P08758 [3], the stoichiometry N is 3.
